Data: publication PMC7608808 (Science Advances, 2020)
Like-named read-outs stand apart in the source and are kept apart here.

Key:
cryo-EM structure [1] = target: the molecule itself; assay: cryo-EM structure
cryo-EM structure [2] = target: the molecule itself; assay: cryo-EM structure; remark: listed apart in the source

| Protein | binding result (cryo-EM structure [1]) | binding result (cryo-EM structure [2]) |
| --- | --- | --- |
| SugC (natural protein) MAEIVLDRVTKSYPDGAGGVRAAVKEFSMTIADGEFIILVGPSGCGKSTTLNMIAGLEEITSGELRIGGERVNEKAPKDRDIAMVFQSYALYPHMTVRQNIAFPLTLAKVPKAEIAAKVEETAKILDLSELLDRKPGQLSGGQRQRVAMGRAIVRSPKAFLMDEPLSNLDAKLRVQMRAEISRLQDRLGTTTVYVTHDQTEAMTLGDRVVVMLAGEVQQIGTPDELYSSPANLFVAGFIGSPAMNFFPATRTDVGVRLPFGEVTLTPHMLDLLDKQARPENIIVGIRPEHIEDSALLDGYARIRALTFSVRADIVESLGADKYVHFTTEGAGAESAQLAELAADSGAGTNQFIARVSADSRVRTGEQIELAIDTTKLSIFDAATGLNLTRDITPTDPTEAAGPDAG | binds | – |
| SugC (E164Q) (natural protein) MAEIVLDRVTKSYPDGAGGVRAAVKEFSMTIADGEFIILVGPSGCGKSTTLNMIAGLEEITSGELRIGGERVNEKAPKDRDIAMVFQSYALYPHMTVRQNIAFPLTLAKVPKAEIAAKVEETAKILDLSELLDRKPGQLSGGQRQRVAMGRAIVRSPKAFLMDQPLSNLDAKLRVQMRAEISRLQDRLGTTTVYVTHDQTEAMTLGDRVVVMLAGEVQQIGTPDELYSSPANLFVAGFIGSPAMNFFPATRTDVGVRLPFGEVTLTPHMLDLLDKQARPENIIVGIRPEHIEDSALLDGYARIRALTFSVRADIVESLGADKYVHFTTEGAGAESAQLAELAADSGAGTNQFIARVSADSRVRTGEQIELAIDTTKLSIFDAATGLNLTRDITPTDPTEAAGPDAG | – | binds |
